Holding throughout (assay): Cell viability (cell kill) assay
The subject of one assay is NCI-N87 cells. The class given is cell-based. Conditions: Table 17. The text has this: (§1) PRLR-overexpressing cells, including HEK293, PC3, MCF7 and NCI-N87, were generated to assess the ability of anti-PRLR conjugated antibodies to reduce cell viability. For comparative purposes, PC3 and T47D cells with overexpressed ErbB2 were also generated, as well as an MCF7 cell line over-expressing both hPRLR and hErbB2. Briefly, Lipofectamine® 2000-mediated transfection methodology was utilized to generate HEK293 cells expressing human PRLR (HEK293/hPRLR) or human ErbB2 (HEK293/hErbB2). Lipofectamine LTX with Plus Reagent was used to generate PC3 cells expressing human PRLR (PC3/hPRLR) or human ErbB2 (PC3/hErbB2). Lentiviral-mediated transduction was utilized to generate MCF7 cells expressing human PRLR (MCF7/hPRLR), NCI-N87 cells expressing human PRLR (NCI-N87/hPRLR), T47D cells over-expressing human ErbB2 (T47D/hErbB2), and MCF7 cells expressing both human PRLR and human ErbB2 (MCF7/hPRLR/hErbB2). All lines were selected for at least two weeks in complete growth media plus appropriate selection reagents. Stably expressing populations were enriched for PRLR expression via FACS using the anti PRLR antibody Control I.
(§2) Next, the ability of anti-PRLR-DM1 antibody-drug conjugates (i.e., anti-PRLR antibodies conjugated to DM1 via a non-cleavable linker [SMCC]) to reduce cell viability was determined using in vitro cell based assays. Cells were seeded in PDL-coated 96 well plates at 1500 to 10000 cells per well in complete growth media and allowed to grow overnight. For cell viability curves, ADCs or free DM1 (as the methyl disulfide derivative DM1-SMe) were added to the cells at final concentrations ranging from 500 nM to 5 pM and incubated for 3 days. The 293, PC3 and T47D cells were incubated with CCK8 (Dojindo, Rockville, Md.) for the final 1-3 hours and the absorbance at 450 nm (OD450) was determined on a Flexstation3 (Molecular Devices, Sunnyvale, Calif.). MCF7 cells were treated with Hoechst 33342 nuclear stain while being fixed with 4% formaldehyde. Images were acquired on the ImageXpress micro XL (Molecular Devices, Sunnyvale, Calif.) and nuclear counts were determined via Columbus image analysis software (Perkin Elmer, Shelton, Conn.). Background OD450 values (PC3, 293, and T47D) or nuclear counts (MCF7) from digitonin (40 nM) treated cells was subtracted from all wells and viability was expressed as a percentage of the untreated controls. IC50 values were determined from a four-parameter logistic equation over a 10-point response curve (GraphPad Prism).
The potency of anti-PRLR conjugated antibodies compared with a similarly conjugated antibody to the co-expressed ErbB2 cell surface target was also assessed. […]

For another assay, the system named is MCF7/hPRLR/hErbB2 cells. The assay is classed as cell-based, human. As to conditions: MCF/PRLR + ErbB2; Table 17.
Source text: as §1, §2
(§3) The potency of anti-PRLR conjugated antibodies compared with a similarly conjugated antibody to the co-expressed ErbB2 cell surface target was also assessed. Both PRLR and ErbB2 are expressed in a majority of breast cancers, and anti-ErbB2 antibodies conjugated to DM1 have shown clinical efficacy in targeting ErbB2 (+) breast cancer (Hurvitz et al; 2013).

The next assay concerns T47D/hErbB2 cells. The class given is cell-based, human. Conditions: T47D/ErbB2; Table 16.
Source text: as §1, §2, §3

The test system of the next assay is NCI-N87/hPRLR cells. The assay is classed as cell-based, human. Conditions: NCI-N87/PRLR; Table 17.
Source text: as §1, §2, §3

In the next assay the test system is PC3/hErbB2 cells. The assay is classed as cell-based, human. As to conditions: PC3/ErbB2; Table 15.
Source text: as §1, §2, §3

Consider 1 molecule from patent publication US9688764B2, “Methods of treating breast cancer by administering anti-human prolactin receptor (PRLR) antibodies” (REGENERON PHARMACEUTICALS, INC., priority 2013, dated 2017).

B1: H1H6953N-DM1 (conjugate)
VH: EVQLLESGGGLVQPGGTLRLSCAASGFTFSAYAMSWVRQAPGKGLEWVSSINVRAGDTYYADSVKGRFTISRDNSKNTLFLLMNSLRAEDTAAYYCAKARYSSNWGFDFWGQGTLVTVSS
VL: DIVMTQSPDSLTVSLGARTTINCQSSQTILHSSNNHNYLAWYQQKPGLPPKLLIYWSSTRESGVPDRFSGSGSGTDFTLTISSLQAEDVAIYYCQQYSNTPYTFGQGTKLEIN
By IC50 is commonly meant the concentration that inhibits the measured activity by half. Take B1: the figures for the “% Kill” value in the assay on NCI-N87 cells and in the assay with T47D/hErbB2 cells were 83% and 80%, respectively. For the same molecule, the IC50 with NCI-N87 cells turned out to be 90 nM; with MCF7/hPRLR/hErbB2 cells it was 0.33 nM; in the assay with T47D/hErbB2 cells, 2.4 nM; with NCI-N87/hPRLR cells, 2.9 nM; in the assay with PC3/hErbB2 cells, 80 nM.
